Measurements reported in patent US20260049134A1 (UNIVERSITY OF FLORIDA RESEARCH FOUNDATION, published 2026).

T1: PTPRG-Fc (ECD of human PTPRG, aa 20-736, fused to human Fc gamma 1) (human, UniProt P23470 20-736)
T1 construct: Made in-house in Expi293 cells; Used in ELISA and SPR; also called recombinant PTPRG-Fc; PTRPG; not shown: human IgG1 Fc (Fc gamma 1) after the hinge
T1 sequence: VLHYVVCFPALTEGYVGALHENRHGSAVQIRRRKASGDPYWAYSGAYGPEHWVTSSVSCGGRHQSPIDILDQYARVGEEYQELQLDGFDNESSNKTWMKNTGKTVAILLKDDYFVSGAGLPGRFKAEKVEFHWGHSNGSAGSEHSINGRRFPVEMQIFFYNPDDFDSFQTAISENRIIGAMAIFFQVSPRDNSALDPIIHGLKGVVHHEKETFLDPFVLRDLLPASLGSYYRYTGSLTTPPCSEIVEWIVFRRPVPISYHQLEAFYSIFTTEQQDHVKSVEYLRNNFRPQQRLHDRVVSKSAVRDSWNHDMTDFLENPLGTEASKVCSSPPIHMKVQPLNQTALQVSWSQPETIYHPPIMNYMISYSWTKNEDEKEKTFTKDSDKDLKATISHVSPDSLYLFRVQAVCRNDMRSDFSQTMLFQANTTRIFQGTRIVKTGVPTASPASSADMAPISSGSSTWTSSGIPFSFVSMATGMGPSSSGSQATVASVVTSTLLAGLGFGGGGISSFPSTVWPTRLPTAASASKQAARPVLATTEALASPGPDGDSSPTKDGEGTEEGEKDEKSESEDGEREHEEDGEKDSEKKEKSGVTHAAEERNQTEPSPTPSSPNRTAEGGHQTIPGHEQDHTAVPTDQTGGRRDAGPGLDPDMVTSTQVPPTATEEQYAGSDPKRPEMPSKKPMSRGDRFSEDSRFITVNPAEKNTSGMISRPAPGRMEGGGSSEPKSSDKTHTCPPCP


target: T1, PTPRG-Fc (ECD of human PTPRG, aa …); experiment: SPR, Biacore X100; PTPRG-Fc captured by anti-human Fc on CM5, Fab injected; mean of triplicates (SD)
Procedure: A Biacore X100 instrument was used to determine the monovalent affinities of the C-1 cluster of Fabs for recombinant PTPRG-Fc, as previously described. […] Each experiment was repeated in triplicate. Rate constants (kₒₙ, koff, and Kd) were calculated using the Biacore evaluation software (Cytiva).

Row | Binder | Kd [nM] | koff [s⁻¹] | kon [M⁻¹ s⁻¹]
1 | HW-25 Fab (chimeric rabbit/human, His-tagged) (Fab, V domains shown, Monovalent Fab: rbVH-huCH1 and rbVL-huCL, His-tagged, made in E. coli from pET11a) VH: QSLEESGGRLVTPGTPLTLTCTVSGFSLSSYAMGWVRQAPGKGLEWIGIIDSRGSTYYATWAKGRFTISKTSTTVDLKITSPTTEDTATYFCAREDSYYYDSFNLWGPGTLVTVSS VL: SFVLTQPASVQVNLGQTVSLTCTADTLSRRYASWYQQKPGQAPVLLIYRDTSRPSGVPDRFSGSSSGNTATLTISGAQAGDEADYYCATSDGSGSSYQCVFGGGTQLTVT | 0.65 | 0.000367 | 566000
2 | HW-17 Fab (chimeric rabbit/human, His-tagged) (Fab, V domains shown, Monovalent Fab: rbVH-huCH1 and rbVL-huCL, His-tagged, made in E. coli from pET11a) VH: QSLGESRGRLVTPDETLTLTCTVSGIDLSSNAMSWVRQAPGEGLEWIGTINTGGRAYYASWAKGRFTISRTSTTVDLKMTSLTTEDTATYFCARERYSDGRAYDIWGPGTLVTISS VL: SFVLTQPASVQVNLGQTVSLTCTADTLSRRYASWYQQKPGQAPVLLIYTDSNRPSGIPDRFSGSSSGNTATLTISGAQAGDEADYYCATDDGSGSIYQYVFGGGTQLTVT | 9.34 | 0.00158 | 169000
3 | HW-1 Fab (chimeric rabbit/human, His-tagged) (Fab, V domains shown, Monovalent Fab: rbVH-huCH1 and rbVL-huCL, His-tagged, made in E. coli from pET11a) VH: QSLEESGGGLFKPTDTLTLTCTASGFSLGSSYAISWVRQAPGKELEWIGTIDSGRAYYARWAKSRSTITRNTNENTVTLKMTSLTAADTATYFCARDLIPTYSQDIWGPGTLVTISS VL: SFVLTQPASVQVNLGQTVSLTCTADTLSRRYASWYQQKPGQAPVLLIYRDTSRPSGVPDRFSGSSSGNTATLTISGAQAGDEADYYCATSDGSGNSYQYVFGGGTQLTVT | 2.54 | 0.000482 | 195000

Other lines, results leading:

Row | Kd [nM] | koff [s⁻¹] | kon [M⁻¹ s⁻¹] | Binder
4 | 28.9 | 0.00429 | 149000 | HW-42 Fab (chimeric rabbit/human, His-tagged) (Fab, V domains shown, Monovalent Fab: rbVH-huCH1 and rbVL-huCL, His-tagged, made in E. coli from pET11a) VH: QSVKESEGGLFKPADTLTLTCTVSGFSLSSNEISWVRQAPGEGLEYIGIIDTGGRAYYAVWARSRSTITRNTNLNTVTLKMTSLTAADTATYFCARGGVDTEWYAFSSWGPGTLVTVPS VL: SFVLTQPASVQVNLGQTVSLTCTADTLSRRYASWYQQKPGQAPVLLIFRDTSRPSGVPDRFSGSSSGDTATLTISGAQAGDEADYYCATSDGSGSNYQYVFGGGTQLTVT
5 | 19.1 | 0.0153 | 826000 | HW-70 Fab (chimeric rabbit/human, His-tagged) (Fab, V domains shown, Monovalent Fab: rbVH-huCH1 and rbVL-huCL, His-tagged, made in E. coli from pET11a) VH: QSLEESGGRLVTPGTPLTLTCTVSGFSLSSNAMSWVRQAPGKGLEWIGTIDGYGYTYYASWAKGRFTVSKTSTTVDLKITSPTTEDTATYFCAREIYLGSNFWGPGTLVTISS VL: SFVLTQPASVQVNLGQTVSLTCTADTLSRRYASWYQQKPGQAPVLLIYRDTSRPSGVPDRFSGSSSGNTATLTISGAQAGDEADYYCATADGSGSSYQFVFGGGTQLTVT
